Results: patent publication EP4725963A1 (Jiangsu Hengrui Pharmaceuticals Co., Ltd., dated 2026)
Changes are numbered by the printed parent chain.

B1: Hu135H1L1 (antibody, human IgG1, kappa, L234A L235A, V domains shown)
VH: DVKLVESGEGLVKPGGSLRLSCAASGFTFSTYGMSWVRQAPGKRLEWVAYINSGGNYIYYADTVKGRFTISRDNAKNSLYLQMNSLRAEDTAVYYCTRDRTTIVVHWYFDVWGQGTTVTVSS
VL: DIQLTQSPSSLSASVGDRVTITCSASSSLNFMHWYQQKPGKSPKRWIYDTSKLASGVPSRFSGSGSGTDYTLTISSLQPEDFATYYCHQRSSTFGGGTKVEIKR
B2: Hu135H2L1 (antibody, human IgG1, kappa, L234A L235A, V domains shown)
VH: B1 VH with T28S, F29I
VL: B1 VL
B3: Hu127H7L5 (antibody, human IgG1, kappa, L234A L235A)
heavy: not shown
light: NIQLTQSPSSLSASVGDRVTITCRASESVDSYGNSFMHWYQQKPGKAPKVLIYLASTLESGVPSRFSGSGSRTDFTLTISSLQPEDFATYYCQQNNEDPLTFGQGTKLEIKRTVAAPSVFIFPPSDEQLKSGTASVVCLLNNFYPREAKVQWKVDNALQSGNSQESVTEQDSKDSTYSLSSTLTLSKADYEKHKVYACEVTHQGLSSPVTKSFNRGEC
B4: Hu127H7L6 (antibody, human IgG1, kappa, L234A L235A)
heavy: not shown
light: B3 light with D17Q, A47P
B5: Hu127H8L5 (antibody, human IgG1, kappa, L234A L235A)
heavy: not shown
light: B3 light
B6: Hu127H8L6 (antibody, human IgG1, kappa, L234A L235A)
heavy: not shown
light: B3 light with D17Q, A47P
B7: Hu127H4L1 (antibody, human IgG1, kappa, L234A L235A)
heavy: not shown
light: DIVMTQSPDSLAVSLGERATINCRASESVDSYGNSFMHWYQQKPGQPPKVLIYLASTLESGVPDRFSGSGSRTDFTLTISSLQAEDVAVYYCQQNNEDPLTFGQGTKLEIKRTVAAPSVFIFPPSDEQLKSGTASVVCLLNNFYPREAKVQWKVDNALQSGNSQESVTEQDSKDSTYSLSSTLTLSKADYEKHKVYACEVTHQGLSSPVTKSFNRGEC
B8: Hu127H4L3 (antibody, human IgG1, kappa, L234A L235A)
heavy: not shown
light: B7 light with D1N, M4L
B9: Hu127H8L3 (antibody, human IgG1, kappa, L234A L235A)
heavy: not shown
light: B7 light with D1N, M4L
B10: Hu127H7L1 (antibody, human IgG1, kappa, L234A L235A)
heavy: not shown
light: B7 light
B11: Hu127H8L1 (antibody, human IgG1, kappa, L234A L235A)
heavy: not shown
light: B7 light
B12: Hu127H7L3 (antibody, human IgG1, kappa, L234A L235A)
heavy: not shown
light: B7 light with D1N, M4L
B13: Hu127H4L5 (antibody, human IgG1, kappa, L234A L235A, V domains shown)
VH: EAYLVQSGAEVKKPGASVKVSCKASGYSFTGYFMNWVRQAPGKGLEWMGRINPYSGDTFYNQKFKGRVTLTVDKSTSTVYMELSSLRSEDTAVYYCARRGYGNRGYWYFDVWGQGTTVTVSS
VL: NIQLTQSPSSLSASVGDRVTITCRASESVDSYGNSFMHWYQQKPGKAPKVLIYLASTLESGVPSRFSGSGSRTDFTLTISSLQPEDFATYYCQQNNEDPLTFGQGTKLEIKR
B14: Hu127H4L6 (antibody, human IgG1, kappa, L234A L235A, V domains shown)
VH: B13 VH
VL: B13 VL with D17Q, A47P
B15: Hu102H5L6 (antibody, human IgG1, kappa, L234A L235A, V domains shown)
VH: B1 VH with N52S, S53R, N56D, R100Q, I103V
VL: DIQLTQSPSSLSASVGDRVTITCSASSSINYMHWYQQKPGKSPKRWIYDTSKLASGVPSRFSGSGSGTDYTLTISSLQPEDFATYYCHQRNSYTFGGGTKVEIKR
B16: CHI-102 (antibody, human IgG1, kappa, V domains shown)
VH: DVKLVESGEGLVKPGGSLKLSCAASGFTFSTYAMSWVRQTPEKRLEWVAYISRGGDYIYYADTVKGRFTISRDNARNTLYLQMSSLKSEDTAMYYCTRDQTTVVVHWYFDVWGTGTTVTVSS
VL: QIVLTQSPAIMSASPGEKVTMTCSASSSINYMHWYQQKPGTSPKRWIYDTSKLASGVPARFSGSGSGTSYSLTISSMEAGDAATYYCHQRNSYTFGGGTKLEIKR
B17: Hu102H3L6 (antibody, human IgG1, kappa, L234A L235A, V domains shown)
VH: B1 VH with G33A, N52S, S53R, N56D, R100Q, I103V
VL: B15 VL

target: T1, human NPR1 full-length protein overexpressed on CHO-K1 cells (human, UniProt P16066 33-1061); assay: cell-based or functional assay
T1 sequence: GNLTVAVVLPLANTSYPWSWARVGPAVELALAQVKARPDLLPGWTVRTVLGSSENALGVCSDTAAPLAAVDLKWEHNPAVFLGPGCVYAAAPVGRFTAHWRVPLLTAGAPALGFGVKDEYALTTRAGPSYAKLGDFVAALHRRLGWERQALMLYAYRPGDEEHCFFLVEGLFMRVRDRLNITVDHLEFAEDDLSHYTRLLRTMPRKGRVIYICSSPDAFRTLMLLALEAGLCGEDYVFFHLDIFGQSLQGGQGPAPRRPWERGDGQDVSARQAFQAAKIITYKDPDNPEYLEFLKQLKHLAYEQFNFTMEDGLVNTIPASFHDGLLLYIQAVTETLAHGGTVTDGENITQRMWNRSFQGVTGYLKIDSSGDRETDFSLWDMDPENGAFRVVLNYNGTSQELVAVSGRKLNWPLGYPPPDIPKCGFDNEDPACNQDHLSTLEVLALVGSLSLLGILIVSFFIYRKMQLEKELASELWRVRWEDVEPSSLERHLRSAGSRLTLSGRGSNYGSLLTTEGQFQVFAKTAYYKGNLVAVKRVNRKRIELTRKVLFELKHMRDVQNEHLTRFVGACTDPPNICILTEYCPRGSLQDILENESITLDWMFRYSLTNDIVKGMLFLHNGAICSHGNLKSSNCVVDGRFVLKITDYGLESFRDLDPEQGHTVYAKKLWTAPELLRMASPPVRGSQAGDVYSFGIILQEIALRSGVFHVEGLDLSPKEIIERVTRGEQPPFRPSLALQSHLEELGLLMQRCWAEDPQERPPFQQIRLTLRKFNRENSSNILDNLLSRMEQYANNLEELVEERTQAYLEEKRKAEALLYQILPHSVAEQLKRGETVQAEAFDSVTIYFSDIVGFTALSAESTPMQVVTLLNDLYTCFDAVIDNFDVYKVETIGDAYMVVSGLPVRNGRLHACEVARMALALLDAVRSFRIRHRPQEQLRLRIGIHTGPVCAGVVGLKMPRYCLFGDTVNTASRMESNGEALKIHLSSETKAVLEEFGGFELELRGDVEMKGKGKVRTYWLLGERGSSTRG

Row | Binder | cGMP production: EC50 [nM] | cGMP production: Emax | cGMP production: Emin
1 | B1 | 116 | 0.43 | 0.22
2 | B2 | 186 | 0.45 | 0.143

target: T1, human NPR1 full-length protein …; assay: cell-based or functional assay; remark: another data set of the same source

Row | Binder | cGMP production: EC50 [nM] | cGMP production: Emax | cGMP production: Emin
3 | B3 | 42.6 | 0.51 | 0.068
4 | B4 | 35.5 | 0.49 | 0.063
5 | B5 | 42 | 0.43 | 0.065
6 | B6 | 36.6 | 0.42 | 0.068
7 | B7 | 45.6 | 0.6 | 0.077
8 | B8 | 51.4 | 0.48 | 0.087
9 | B9 | 48.6 | 0.46 | 0.072
10 | B10 | 55.8 | 0.5 | 0.081
11 | B11 | 62.6 | 0.45 | 0.083
12 | B12 | 56.5 | 0.54 | 0.066
13 | B13 | 32.4 | 0.59 | 0.068
14 | B14 | 38.5 | 0.54 | 0.073

target: T1, human NPR1 full-length protein …; assay: cell-based or functional assay; remark: another data set of the same source

Row | Binder | cGMP production: EC50 [nM] | cGMP production: Emax | cGMP production: Emin
15 | B15 | 43.6 | 0.59 | 0.21
16 | B16 | 54.9 | 0.57 | 0.23
17 | B17 | 48.5 | 0.61 | 0.16
